Some results are limits rather than exact numbers.

The target of assay [1] is T1, porcine αvβ3 integrin on PAE cells (porcine, UniProt A0A5K1V6L8 31-1052; A0A8D0RDV2 33-793).
T1 construct: whole, on cells
The experiment in a line: flow cytometry on PAE cells. (In flow cytometry, cells or beads pass a laser one at a time.)

Assay [2] addresses T2, VEGFR2 on SVR angiosarcoma cells (murine cell line) (murine, UniProt P35918 20-1345).
T2 construct: whole, on cells
Briefly: flow cytometry titration on SVR cells, anti-FLAG detection.

Assay [3] concerns the target T3, αiibβ3 integrin on transfected K562 cells (UniProt P08514 32-1039; P05106 27-788, limits assumed).
T3 construct: whole, on cells
Briefly: flow cytometry on K562 cells transfected with αiibβ3.

In assay [4] the target is T4, αvβ5 integrin on transfected K562 cells (UniProt P06756 31-1048; P18084 24-799, limits assumed).
T4 construct: whole, on cells
Briefly: flow cytometry on K562 cells transfected with αvβ5.

Assay [5] concerns the target T5, α5β1 integrin on wild-type K562 cells (UniProt P08648 42-1049; P05556 21-798, limits assumed).
T5 construct: whole, on cells
The experiment in a line: flow cytometry on wild-type K562 cells.

In assay [6] the target is T6, human αvβ3 integrin on cells (human, UniProt P06756 31-1048; P05106 27-788).
T6 construct: whole, on cells; also called avb3; alpha v beta 3
The experiment in a line: flow cytometry on U87MG cells (no VEGFR2; receptor not named by the filing).

Assay [7] has as its target T7, human VEGFR2 on cells (PAE/KDR cells, HUVEC) (human, UniProt P35968 20-1356).
T7 construct: whole, on cells
The experiment in a line: flow cytometry titration on PAE/KDR cells, anti-FLAG detection.

The target in assay [8] is T8, recombinant human VEGFR2 extracellular domain (human, UniProt P35968 20-764).
T8 construct: extracellular domain; also called KDR; Flk-1
T8 sequence (P35968 20-764): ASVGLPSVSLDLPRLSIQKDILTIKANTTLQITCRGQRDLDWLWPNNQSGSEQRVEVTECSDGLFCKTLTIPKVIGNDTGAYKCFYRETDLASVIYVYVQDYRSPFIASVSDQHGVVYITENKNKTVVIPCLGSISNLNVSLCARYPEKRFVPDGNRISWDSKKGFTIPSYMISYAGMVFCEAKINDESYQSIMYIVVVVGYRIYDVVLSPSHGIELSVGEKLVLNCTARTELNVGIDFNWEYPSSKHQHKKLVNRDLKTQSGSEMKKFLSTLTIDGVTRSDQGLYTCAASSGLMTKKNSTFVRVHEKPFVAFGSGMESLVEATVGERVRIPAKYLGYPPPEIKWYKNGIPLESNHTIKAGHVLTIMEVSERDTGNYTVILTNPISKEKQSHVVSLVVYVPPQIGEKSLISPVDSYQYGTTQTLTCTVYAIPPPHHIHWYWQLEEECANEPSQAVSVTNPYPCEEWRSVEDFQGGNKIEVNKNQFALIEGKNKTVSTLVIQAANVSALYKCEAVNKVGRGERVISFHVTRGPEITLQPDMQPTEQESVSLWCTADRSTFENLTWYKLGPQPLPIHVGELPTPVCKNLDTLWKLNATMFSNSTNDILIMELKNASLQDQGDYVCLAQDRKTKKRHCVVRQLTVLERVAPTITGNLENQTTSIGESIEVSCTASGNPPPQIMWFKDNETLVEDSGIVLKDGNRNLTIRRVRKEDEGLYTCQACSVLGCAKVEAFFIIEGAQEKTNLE
The experiment in a line: SPR (BIAcore 3000), VEGFR2 amine-coupled to CM5 chip, scVEGF as analyte, 1:1 model. On the technique in general: In SPR one partner is held on a chip, and binding of the other changes the refractive index at the surface.

For assay [9], the target named is T7, human VEGFR2 on cells (PAE/KDR cells, …). The experiment in a line: flow cytometry titration on HUVEC, anti-FLAG detection.
Assay [10] has the same target. Briefly: flow cytometry titration on PAE/KDR cells, optimized conditions of Example 3, anti-FLAG detection.
For assay [11] the target is unchanged. Briefly: flow cytometry titration on HUVEC, optimized conditions of Example 3, anti-FLAG detection.
In assay [12] the target is T2, VEGFR2 on SVR angiosarcoma cells …. Briefly: flow cytometry titration on SVR cells, optimized conditions of Example 3, anti-FLAG detection.
The target of assay [13] is T6, human αvβ3 integrin on cells. The experiment in a line: cell-based or functional assay.
For assay [14] the target is unchanged. The experiment in a line: flow cytometry titration on U87MG cells (no VEGFR2; receptor not named by the filing), anti-FLAG detection.
Assay [15] concerns the target VEGFR2 and αvβ3 integrin, both expressed on human umbilical vein endothelial cells (HUVEC) (human) (UniProt P35968). Briefly: flow cytometry titration on HUVEC (VEGFR2 and αvβ3 both present), anti-FLAG detection.
Assay [16] deals with VEGFR2 and αvβ3 integrin, both expressed on SVR angiosarcoma cells (murine cell line) (murine) (UniProt P35918). The experiment in a line: flow cytometry titration on SVR cells (VEGFR2 and αvβ3 both present), anti-FLAG detection.
For assay [17], the target named is T1, porcine αvβ3 integrin on PAE cells. Briefly: flow cytometry titration on PAE cells, anti-FLAG detection.
Assay [18] has as its target T6, human αvβ3 integrin on cells. The experiment in a line: flow cytometry titration on K562-αvβ3 cells, anti-His detection.
Assay [19] has as its target T7, human VEGFR2 on cells (PAE/KDR cells, …). The experiment in a line: flow cytometry titration on PAE/KDR cells (also carry porcine αvβ3; filing ascribes binding to VEGFR2), anti-FLAG detection.
The target in assay [20] is T6, human αvβ3 integrin on cells. Briefly: flow cytometry titration on K562-αvβ3 cells.
In assay [21] the target is VEGFR2 and αvβ3 integrin, both expressed on human umbilical vein endothelial cells (HUVEC) (human) (UniProt P35968). Briefly: cell-based or functional assay.

T5 sequence (P08648 42-1049 limits assumed, chain 1 of 2): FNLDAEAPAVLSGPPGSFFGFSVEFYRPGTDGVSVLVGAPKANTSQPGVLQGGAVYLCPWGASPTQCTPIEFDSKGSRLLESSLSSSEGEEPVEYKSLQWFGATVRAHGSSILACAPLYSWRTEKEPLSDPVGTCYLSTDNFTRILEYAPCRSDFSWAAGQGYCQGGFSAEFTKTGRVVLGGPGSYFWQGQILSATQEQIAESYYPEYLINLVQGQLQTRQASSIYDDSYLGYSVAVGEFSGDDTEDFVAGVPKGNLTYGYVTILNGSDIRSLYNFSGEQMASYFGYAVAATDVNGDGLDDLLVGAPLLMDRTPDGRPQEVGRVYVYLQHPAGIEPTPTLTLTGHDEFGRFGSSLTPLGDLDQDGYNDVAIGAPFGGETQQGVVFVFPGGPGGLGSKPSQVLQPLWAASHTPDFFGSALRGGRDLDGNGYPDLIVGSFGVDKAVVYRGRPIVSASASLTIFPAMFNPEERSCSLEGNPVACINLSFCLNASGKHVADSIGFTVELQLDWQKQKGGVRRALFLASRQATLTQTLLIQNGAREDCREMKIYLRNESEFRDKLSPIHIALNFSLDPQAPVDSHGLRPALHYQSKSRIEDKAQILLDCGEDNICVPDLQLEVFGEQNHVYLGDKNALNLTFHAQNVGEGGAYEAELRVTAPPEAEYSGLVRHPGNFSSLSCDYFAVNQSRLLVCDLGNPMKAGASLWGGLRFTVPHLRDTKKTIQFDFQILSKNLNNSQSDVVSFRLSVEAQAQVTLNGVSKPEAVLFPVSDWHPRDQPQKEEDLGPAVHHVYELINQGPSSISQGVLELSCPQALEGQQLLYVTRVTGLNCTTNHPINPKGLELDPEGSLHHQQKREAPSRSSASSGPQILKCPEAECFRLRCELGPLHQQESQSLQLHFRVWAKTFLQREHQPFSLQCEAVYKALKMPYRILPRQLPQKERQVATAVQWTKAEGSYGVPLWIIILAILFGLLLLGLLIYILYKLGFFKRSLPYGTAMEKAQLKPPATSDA
T5 sequence (P05556 21-798 limits assumed, chain 2 of 2): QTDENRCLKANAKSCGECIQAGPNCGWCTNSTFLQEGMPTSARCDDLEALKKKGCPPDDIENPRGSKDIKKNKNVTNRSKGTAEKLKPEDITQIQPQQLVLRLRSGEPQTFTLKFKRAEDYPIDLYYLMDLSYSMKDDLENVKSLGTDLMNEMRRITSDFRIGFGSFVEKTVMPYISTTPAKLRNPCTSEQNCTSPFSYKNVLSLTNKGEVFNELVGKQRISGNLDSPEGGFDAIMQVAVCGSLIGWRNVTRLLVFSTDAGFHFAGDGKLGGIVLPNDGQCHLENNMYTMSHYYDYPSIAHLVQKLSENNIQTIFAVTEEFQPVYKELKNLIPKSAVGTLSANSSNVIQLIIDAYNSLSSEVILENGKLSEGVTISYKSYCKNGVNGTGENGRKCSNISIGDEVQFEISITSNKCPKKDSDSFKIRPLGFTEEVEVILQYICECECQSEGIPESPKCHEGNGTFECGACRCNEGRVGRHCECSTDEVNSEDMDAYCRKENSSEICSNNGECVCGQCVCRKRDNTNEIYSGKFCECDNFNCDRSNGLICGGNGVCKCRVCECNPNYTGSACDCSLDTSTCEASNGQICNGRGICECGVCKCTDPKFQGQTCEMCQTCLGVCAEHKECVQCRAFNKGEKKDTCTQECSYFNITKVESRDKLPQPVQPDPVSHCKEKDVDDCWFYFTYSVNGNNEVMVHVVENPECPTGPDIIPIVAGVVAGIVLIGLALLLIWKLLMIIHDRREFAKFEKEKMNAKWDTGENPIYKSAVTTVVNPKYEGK
T2 sequence (P35918 20-1345): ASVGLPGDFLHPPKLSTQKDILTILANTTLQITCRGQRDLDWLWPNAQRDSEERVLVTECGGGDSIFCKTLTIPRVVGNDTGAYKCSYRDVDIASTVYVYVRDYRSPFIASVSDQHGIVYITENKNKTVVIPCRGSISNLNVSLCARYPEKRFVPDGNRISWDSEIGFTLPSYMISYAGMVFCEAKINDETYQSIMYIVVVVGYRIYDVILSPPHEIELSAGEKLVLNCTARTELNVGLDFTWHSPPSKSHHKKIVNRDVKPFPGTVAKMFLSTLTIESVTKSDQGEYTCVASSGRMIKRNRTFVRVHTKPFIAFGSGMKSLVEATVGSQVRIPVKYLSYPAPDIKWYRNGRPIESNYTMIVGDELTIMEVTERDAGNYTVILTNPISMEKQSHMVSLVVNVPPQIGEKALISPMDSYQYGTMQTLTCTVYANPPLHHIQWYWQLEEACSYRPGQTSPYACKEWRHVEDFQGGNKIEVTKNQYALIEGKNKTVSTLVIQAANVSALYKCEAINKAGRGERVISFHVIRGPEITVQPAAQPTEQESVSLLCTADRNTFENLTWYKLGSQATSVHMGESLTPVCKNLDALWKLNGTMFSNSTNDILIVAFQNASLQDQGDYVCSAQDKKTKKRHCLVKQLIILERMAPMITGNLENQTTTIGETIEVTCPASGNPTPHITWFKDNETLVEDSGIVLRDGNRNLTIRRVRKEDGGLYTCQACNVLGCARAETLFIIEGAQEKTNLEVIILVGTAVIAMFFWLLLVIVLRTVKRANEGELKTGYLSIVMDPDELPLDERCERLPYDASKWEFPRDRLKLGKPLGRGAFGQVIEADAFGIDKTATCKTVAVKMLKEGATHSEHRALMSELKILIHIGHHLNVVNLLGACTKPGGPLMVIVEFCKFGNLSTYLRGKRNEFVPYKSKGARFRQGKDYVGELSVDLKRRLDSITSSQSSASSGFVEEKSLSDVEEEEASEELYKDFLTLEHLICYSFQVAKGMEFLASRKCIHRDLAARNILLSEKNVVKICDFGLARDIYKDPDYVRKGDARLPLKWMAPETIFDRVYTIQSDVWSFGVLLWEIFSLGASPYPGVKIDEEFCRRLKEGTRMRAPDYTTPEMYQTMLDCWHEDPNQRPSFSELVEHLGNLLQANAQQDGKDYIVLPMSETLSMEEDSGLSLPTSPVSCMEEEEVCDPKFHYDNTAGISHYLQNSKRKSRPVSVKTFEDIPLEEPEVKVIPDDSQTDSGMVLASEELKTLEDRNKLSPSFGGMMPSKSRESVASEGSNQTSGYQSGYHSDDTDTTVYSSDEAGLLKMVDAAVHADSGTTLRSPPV

B1: scVEGF-mA (designed binder)
chain: EVAKAMDVYQKSYCHPIETLVDILQEYPDEIGYIFKPSCVPLMRCGGCCNDAGLECVPTEESNITMQIMRIKPYQGQHIGEMSFLQHNKCECRPKKDGSTSGSGKSSEGKGEVVKFMDVYQRSYCHPIETLVDIFQEYPDKIEYAFKPSCVPLMRCGGCCNNEGLECVPTEESNITMQITRAKPHQGQHIGEMSFLQHNKCECRPKKD
notes: Soluble protein from P. pastoris with C-terminal hexahistidine tag, with or without N-terminal FLAG tag (tags not included in the parts); also called scVEGFmut-A
Take B1: the binding result in assay [1] is given as “no binding (tested: 1 µM)”; in assay [3], “no binding”; in [4], “no binding”; in assay [5], “no binding”; in assay [6], “no binding (tested: 1 µM)”. Besides, the Kd (commonly the free concentration of one partner at which half of the binding sites on the other are occupied at equilibrium, for simple one-to-one binding) in assay [2] stood at 13 nM; in assay [7] it was 5.7 nM; in assay [8], 2.1 nM; in [9], 36 nM; in assay [10] it was 0.5 nM. Further, in assay [8], the koff (commonly a measure of how fast the partners let go of each other) was found to be 0.00049 s⁻¹. The kon (in general, a measure of how fast the partners come together) in assay [8] was found to be 240000 M⁻¹ s⁻¹.

B2: scVEGF-mJ (designed binder)
chain: EIVKARDVYQRSYCHPIETLVDILQEYPDEIEYIFKPSCVPLMRCGGCCNDAGLECVPTEESNITMQIMRIKPYQGHHIGEMSFLQHNKCECRPKKDGSTSGSGKSSEGKGEVVKFMDVYQRSYCHPIETLVDIFQEYPDEIEYAFKPSCVPLMRCGGCCNNEGLECVPTEESNITMQIMRAKPHQGQHTGEMSFLQHNKCECRPKKD
notes: Soluble protein with C-terminal hexahistidine tag, with or without N-terminal FLAG tag (tags not included in the parts); also called scVEGFmut-J
Regarding B2, the binding result in assay [1] is “no binding (tested: 1 µM)”; in assay [3] it was “no binding”; in assay [4] it was “no binding”; in [5] it was “no binding”; in assay [6], “no binding (tested: 1 µM)”. Besides, the Kd in [2] worked out at 3 nM; in assay [7] it was 6.9 nM; in assay [8], 1.6 nM; in [9] it was 39 nM; in assay [10], 0.5 nM. The koff in assay [8] amounted to 0.0003 s⁻¹. In [8], the kon is 200000 M⁻¹ s⁻¹.

B3: scVEGF-mE (designed binder)
chain: EVVKAMDVYQRSYCHPIETLVDILQEYPDEIGYIFKPSCVPLMRCGGCCNGAGLECVPTEESNITMQIMRIKPHRGQHIGEMSFLQHNKCECRPKKDGSTSGSGKSSEGKGEVVRFMDVYQRSYCHPIETLVDIFQEYPNEIEYAFKPSCVPLMRCGGCCNNEGLECVPTEESNITMQIMRAKPHQGQHIGEMSFLQHNKCECRPKKD
notes: Soluble protein with C-terminal hexahistidine tag, with or without N-terminal FLAG tag (tags not included in the parts); also called scVEGFmut-E
Consider B3, for which the binding result in assay [1] is “no binding (tested: 1 µM)”; in assay [3], “no binding”; in assay [4], “no binding”; in assay [5], “no binding”; in [6], “no binding (tested: 1 µM)”. Also, the dissociation constant Kd turned out to be 8 nM in [2]; 0.4 nM in assay [11]; 6.6 nM in [7]; 2.8 nM in assay [8]; 53 nM in [9]; 0.9 nM in assay [10]. The molecule further returned a Kd in assay [12] of 0.7 nM. In assay [8], the off-rate constant (koff) was determined as 0.00061 s⁻¹. Besides, the association rate constant (kon) in assay [8] was 220000 M⁻¹ s⁻¹.

B4: scVEGFrgd-7H (designed binder)
chain: EVVKAMDVYQRSYCHPIETLVDIFQEYPDEIEYIFKPSCVPLMRCGGCCNDAGLECVPTEESNITMQIMRIKPHQGQHIGEMSFLQHNKCECRPKKDGSTSGSGKSSEGKGEVVKFMDVYQRSYCHPIETLVDIFQEYPDEIEYAFKPSCVPLMRCGGCCNDEGLECVPTEESNITMQIMRPGGRGDSAYHIGEMSFLQHNKCECRPKKDTR
notes: Soluble protein from P. pastoris with C-terminal hexahistidine tag, with or without N-terminal FLAG tag; also called scVEGF-7H
As to B4, the “IC50 of inhibition of vitronectin-mediated adhesion of HUVEC cells” value (from here on “IC50 of inhibition … of HUVEC cells”) in assay [13] was < 10 nM. The Kd in assay [14] was 15.6 nM; in [15] it was 12 nM; in assay [16], 18 nM; in assay [17] it was 26.5 nM; in assay [18], 36 nM; in assay [19] it was 16 nM. Further, the binding result in [3], in [4] and in [5] was “no binding” each time.

B5: scVEGFrgd-7B (designed binder)
chain: EVVKAMDVYQRSYCHPIETLVDIFQEYPDEIEYIFKPSCVPLMRCGGCCNDAGLECVPTEESNITMQIMRIKPHQGQHIGEMSFLQHNKCECRPKKDGSTSGSGKSSEGKGEVVKFMDVYQRSYCHPIETLVDIFQEYPDEIEYAFKPSCVPLMRCGGCCNDEGLECVPTEESNITMQIMRPHDRGDAGVHIGEMSFLQHNKCECRPKKDTR
notes: Soluble protein from P. pastoris with C-terminal hexahistidine tag, with or without N-terminal FLAG tag
For B5, the Kd in assay [20] stood at 143 nM; in [18] it was 140 nM.

B6: scVEGFrgd-7P (designed binder)
chain: EVVKAMDVYQRSYCHPIETLVDIFQEYPDEIEYIFKPSCVPLMRCGGCCNDAGLECVPTEESNITMQIMRIKPHQGQHIGEMSFLQHNKCECRPKKDGSTSGSGKSSEGKGEVVKFMDVYQRSYCHPIETLVDIFQEYPDEIEYAFKPSCVPLMRCGGCCNDEGLECVPTEESNITMQIMRPASRGDSPPHIGEMSFLQHNKCECRPKKDTR
notes: Soluble protein from P. pastoris with C-terminal hexahistidine tag, with or without N-terminal FLAG tag; also called scVEGF-7P
As for B6, in assay [13], the “IC50 of inhibition … of HUVEC cells” value is < 10 nM. Besides, the dissociation constant Kd in assay [14] was determined as 29 nM; in assay [15], 45 nM; in [16], 31 nM; in [17], 26.9 nM; in [18] it was 37 nM; in [19] it was 21 nM. For the same molecule, the binding result in [3], in assay [4] and in assay [5] was “no binding” each time.

B7: scVEGFrgd-7I (designed binder)
chain: EVVKAMDVYQRSYCHPIETLVDIFQEYPDEIEYIFKPSCVPLMRCGGCCNDAGLECVPTEESNITMQIMRIKPHQGQHIGEMSFLQHNKCECRPKKDGSTSGSGKSSEGKGEVVKFMDVYQRSYCHPIETLVDIFQEYPDEIEYAFKPSCVPLMRCGGCCNDEGLECVPTEESNITMQIMRPSVRRGDSPASHIGEMSFLQHNKCECRPKKDTR
notes: Soluble protein from P. pastoris with C-terminal hexahistidine tag, with or without N-terminal FLAG tag; also called scVEGF-7I
In the case of B7, the “IC50 of inhibition … of HUVEC cells” value in assay [13] was < 10 nM. Further, the Kd in assay [14] was 13.9 nM; in assay [15], 6 nM; in assay [16], 37 nM; in [17], 18.6 nM; in assay [18], 34 nM; in [19], 20 nM. In addition, the binding result in [3], in assay [4] and in assay [5] was “no binding” in each case. Moreover, in assay [21], the inhibition of VEGF-induced autophosphorylation of VEGFR-2 in HUVEC in the presence of vitronectin amounted to 80%.

B8: scVEGFmut (designed binder)
chain: YVEVVKAMDVYQRSYCHPIETLVDIFQEYPDEIEYIFKPSCVPLMRCGGCCNDAGLECVPTEESNITMQIMRIKPHQGQHIGEMSFLQHNKCECRPKKDGSTSGSGKSSEGKGEVVKFMDVYQRSYCHPIETLVDIFQEYPDEIEYAFKPSCVPLMRCGGCCNDEGLECVPTEESNITMQIMRAKPHQGQHIGEMSFLQHNKCECRPKKDTR
notes: scVEGF with chain 1 F17A, E64A and chain 2 I46A, I83A (VEGF121 numbering); Soluble protein from P. pastoris with C-terminal hexahistidine tag, with or without N-terminal FLAG tag
With B8, the binding result in [1] and in assay [6] was “no binding (tested: 1 µM)” in each case. Moreover, the dissociation constant (Kd) in assay [11] is 44 nM; in assay [7], 17 nM; in [8], 18 nM; in [9], 101 nM; in assay [10], 55 nM; in assay [12], > 40 nM. Also, in assay [8], the off-rate (koff) turned out to be 0.00146 s⁻¹. Moreover, in assay [8], the on-rate constant (kon) was determined as 83000 M⁻¹ s⁻¹.

The values are drawn from US20160039895A1 (published 2016).
